Experimental data from patent publication US20240384250A1, “FIBROBLAST GROWTH FACTOR 23 MODULATING COMPOUNDS” (THE UAB RESEARCH FOUNDATION, priority 2021, published 2024).
Entries after “also recorded” stand apart in the source; their conditions may differ.

Experiments:
[1] = target: T1, FGFR1c (Homo sapiens, UniProt P11362); test: Plate-based binding assay, FGFR1c coated, FLAG-sKL detected with anti-FLAG HRP; conditions: for binding of FLAG-sKL to coated FGFR1c: 40 ng FGFR1c coated, 80 ng FLAG-sKL, compared with FGFR4 and FGF23
T1 construct: Fc-coupled FGFR ectodomains were immobilized on protein A/G beads; purchased R&D Systems 658FR050
T1 sequence (P11362 22-376 limits assumed): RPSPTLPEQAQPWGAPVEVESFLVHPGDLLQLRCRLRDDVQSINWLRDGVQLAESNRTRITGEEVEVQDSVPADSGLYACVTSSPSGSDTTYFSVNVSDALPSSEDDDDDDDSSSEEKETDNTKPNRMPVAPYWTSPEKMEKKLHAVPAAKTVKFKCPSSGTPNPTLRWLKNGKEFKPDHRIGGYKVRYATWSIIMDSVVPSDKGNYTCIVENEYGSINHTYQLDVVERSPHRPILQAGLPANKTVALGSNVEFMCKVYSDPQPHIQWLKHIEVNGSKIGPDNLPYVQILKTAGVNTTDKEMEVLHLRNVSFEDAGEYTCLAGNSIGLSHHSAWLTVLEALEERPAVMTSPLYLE
Experimental: (§1) Proteins were coated on 96-well plates (MaxiSorp; 439454, Thermo Fisher Scientific), and proteins were added to wells in 100 μl of enzyme-linked immunosorbent assay (ELISA) coating buffer (E107, Bethyl Laboratories) with a lid placed overtop and incubated at 4° C. overnight. Plates were washed 5× with 350 μl of assay buffer (50 mM Tris [pH 7.4], 200 mM NaCl, 0.01% Tween 20) on a 50 TS microplate washer (BioTek). Plates were blocked for 1 hour in 200 μl of assay buffer with 0.5% BSA. Plates were washed as before, and proteins were incubated on plates in 100 μl of assay buffer with 0.5% BSA. Proteins or heparin was incubated in orders described in the respective figure legends. Assays using FLAG-tag-based detection were incubated with anti-FLAG coupled to HRP at 1:20,000, and assays using Fc detection were incubated with anti-human Fc coupled to HRP at 1:10,000. Plates were washed as above, and 100 μl of 3,3′,5,5′-tetramethylbenzidine (TMB) substrate (E102, Bethyl Laboratories) was added for 15 to 20 minutes until positive wells developed a dark blue color. Reactions were stopped with ELISA stop solution (E115, Bethyl Laboratories) and analyzed using the Synergy HI plate reader (BioTek) at 450 nm wavelength. […] As a control to remove background absorbance values, wells were coated with an equal amount of BSA to match the amount of protein coated in experimental wells and treated the same as experimental wells. To study the effects of sKL on the binding between paracrine FGFs and FGFRs, plates were run as above except coated with paracrine FGFs. Fc-FGFR1 was preincubated with sKL or vehicle for 60 minutes, and then the combination was added to wells and the assay was run as before.

[2] = test system: FGF19 binding to FGFR isoforms 1c, 2c, 3c, 4; test: Pull-down and plate binding of FGF19 to FGFR isoforms with sKL or heparin; design: species or system human
Sequence of FGF19 binding to FGFR isoforms 1c, 2c, 3c, 4 (O95750 25-216): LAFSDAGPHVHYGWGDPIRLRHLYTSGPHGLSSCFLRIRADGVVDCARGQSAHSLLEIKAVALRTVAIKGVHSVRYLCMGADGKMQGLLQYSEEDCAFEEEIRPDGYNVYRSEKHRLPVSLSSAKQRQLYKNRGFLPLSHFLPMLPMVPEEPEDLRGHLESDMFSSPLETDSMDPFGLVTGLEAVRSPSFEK
Experimental: To study the interaction between Fc-tagged FGFR isoforms (Fc-FGFR), FGF isoforms, and sKL, immunoprecipitation studies were conducted. Protein A beads (6501, BioVision) and protein G beads (6511, BioVision) were used at 25 μl of a 50% stock slurry per sample in a total bead volume of 50 μl. Beads were washed 5× in activity buffer (50 mM Tris [pH 7.4], 200 mM NaCl, 0.01% Tween 20). Bead spin-down assays were all performed for 2 minutes at 5000 g. Beads were resuspended in 1 ml of activity buffer in a 1.5-ml snap cap tube. One microgram of Fc-FGFR1 to 4 was incubated with the beads for 1 hour on a bead rotator. Control samples were incubated with 2 μg of anti-FGF antibody instead of Fc-FGFR. […] Samples were analyzed using SDS-PAGE and Western blotting.
Proteins were coated on 96-well plates (MaxiSorp; 439454, Thermo Fisher Scientific), and proteins were added to wells in 100 μl of enzyme-linked immunosorbent assay (ELISA) coating buffer (E107, Bethyl Laboratories) with a lid placed overtop and incubated at 4° C. overnight. […] Reactions were stopped with ELISA stop solution (E115, Bethyl Laboratories) and analyzed using the Synergy HI plate reader (BioTek) at 450 nm wavelength. […] As a control to remove background absorbance values, wells were coated with an equal amount of BSA to match the amount of protein coated in experimental wells and treated the same as experimental wells. […]

[3] = target: T2, FGF23 binding to FGFR1c (Homo sapiens, UniProt P11362+Q9GZV9); test: Plate-based binding, FGF23 coated, then sKL, heparin or PBS, then Fc-FGFR; conditions: with sKL, with heparin 0.4 USP, or alone
T2 construct: Fc-coupled FGFR ectodomains were immobilized on protein A/G beads; purchased R&D Systems 2604FG025/CF or 2629FG025/CF; 658FR050
T2 sequence (Q9GZV9 25-251): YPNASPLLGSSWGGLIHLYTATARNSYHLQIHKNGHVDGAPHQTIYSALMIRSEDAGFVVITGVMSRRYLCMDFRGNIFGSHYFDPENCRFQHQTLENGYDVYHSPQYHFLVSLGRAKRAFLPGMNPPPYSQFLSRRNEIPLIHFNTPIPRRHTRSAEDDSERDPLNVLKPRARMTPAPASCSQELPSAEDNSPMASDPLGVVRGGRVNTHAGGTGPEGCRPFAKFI
T2 sequence (P11362 22-376 limits assumed): T1 sequence (P11362 22-376 limits assumed)
Experimental: as §1

[4] = target: T3, FGF23 binding to FGFR2c (Homo sapiens, UniProt P21802); test: as above; conditions: with sKL, with heparin 0.4 USP, or alone
T3 construct: Fc-coupled FGFR ectodomains were immobilized on protein A/G beads; purchased R&D Systems 2604FG025/CF or 2629FG025/CF; 712FR050
T3 sequence (P21802 22-377 limits assumed): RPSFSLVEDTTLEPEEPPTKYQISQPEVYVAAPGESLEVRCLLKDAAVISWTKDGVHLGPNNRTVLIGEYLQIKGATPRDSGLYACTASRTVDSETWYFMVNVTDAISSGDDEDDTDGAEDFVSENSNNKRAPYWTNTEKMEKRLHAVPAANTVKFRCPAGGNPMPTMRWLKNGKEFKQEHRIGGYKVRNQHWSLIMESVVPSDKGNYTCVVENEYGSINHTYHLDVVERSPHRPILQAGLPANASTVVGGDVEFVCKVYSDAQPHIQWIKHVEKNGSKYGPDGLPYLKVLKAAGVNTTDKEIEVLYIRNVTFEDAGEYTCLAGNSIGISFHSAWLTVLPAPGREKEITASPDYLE
Experimental: as §1

[5] = target: T4, FGF23 binding to FGFR3c (Homo sapiens, UniProt P22607+Q9GZV9); test: as above; conditions: with sKL, with heparin 0.4 USP, or alone
T4 construct: Fc-coupled FGFR ectodomains were immobilized on protein A/G beads; purchased R&D Systems 2604FG025/CF or 2629FG025/CF; 766FR050
T4 sequence (Q9GZV9 25-251): T2 sequence (Q9GZV9 25-251)
T4 sequence (P22607 23-375 limits assumed): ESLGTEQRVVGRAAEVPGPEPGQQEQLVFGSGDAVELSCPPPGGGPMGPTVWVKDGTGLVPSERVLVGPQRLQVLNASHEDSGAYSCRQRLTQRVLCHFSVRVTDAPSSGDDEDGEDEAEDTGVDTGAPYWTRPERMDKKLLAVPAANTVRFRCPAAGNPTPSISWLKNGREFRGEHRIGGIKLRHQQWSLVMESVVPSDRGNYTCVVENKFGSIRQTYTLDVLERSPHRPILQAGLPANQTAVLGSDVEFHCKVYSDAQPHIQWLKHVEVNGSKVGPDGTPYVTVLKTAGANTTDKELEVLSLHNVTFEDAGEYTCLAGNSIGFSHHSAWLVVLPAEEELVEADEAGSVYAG
Experimental: as §1

[6] = test system: isolated adult ventricular cardiac myocytes; conditions: previous studies; cited from earlier work

B1: sKL: recombinant soluble α-klotho ectodomain, mouse aa 35-982 and human aa 34-981, FLAG- or Strep/His-tagged, purified from HEK293 cells (protein)
chain: EPGDGAQTWARFSRPPAPEAAGLFQGTFPDGFLWAVGSAAYQTEGGWQQHGKGASIWDTFTHHPLAPPGDSRNASLPLGAPSPLQPATGDVASDSYNNVFRDTEALRELGVTHYRFSISWARVLPNGSAGVPNREGLRYYRRLLERLRELGVQPVVTLYHWDLPQRLQDAYGGWANRALADHFRDYAELCFRHFGGQVKYWITIDNPYVVAWHGYATGRLAPGIRGSPRLGYLVAHNLLLAHAKVWHLYNTSFRPTQGGQVSIALSSHWINPRRMTDHSIKECQKSLDFVLGWFAKPVFIDGDYPESMKNNLSSILPDFTESEKKFIKGTADFFALCFGPTLSFQLLDPHMKFRQLESPNLRQLLSWIDLEFNHPQIFIVENGWFVSGTTKRDDAKYMYYLKKFIMETLKAIKLDGVDVIGYTAWSLMDGFEWHRGYSIRRGLFYVDFLSQDKMLLPKSSALFYQKLIEKNGFPPLPENQPLEGTFPCDFAWGVVDNYIQVDTTLSQFTDLNVYLWDVHHSKRLIKVDGVVTKKRKSYCVDFAAIQPQIALLQEMHVTHFRFSLDWALILPLGNQSQVNHTILQYYRCMASELVRVNITPVVALWQPMAPNQGLPRLLARQGAWENPYTALAFAEYARLCFQELGHHVKLWITMNEPYTRNMTYSAGHNLLKAHALAWHVYNEKFRHAQNGKISIALQADWIEPACPFSQKDKEVAERVLEFDIGWLAEPIFGSGDYPWVMRDWLNQRNNFLLPYFTEDEKKLIQGTFDFLALSHYTTILVDSEKEDPIKYNDYLEVQEMTDITWLNSPSQVAVVPWGLRKVLNWLKFKYGDLPMYIISNGIDDGLHAEDDQLRVYYMQNYINEALKAHILDGINLCGYFAYSFNDRTAPRFGLYRYAADQFEPKASMKHYRKIIDSNGFPGPETLERFCPEEFTVCTECSFFHTRKS
modifications: left off: small tags and cut ends
notes: recombinant soluble α-klotho ectodomain, mouse aa 35-982 and human aa 34-981, FLAG- or Strep/His-tagged, purified from HEK293 cells
binding of FLAG-sKL to coated FGFR1c [1]: highest affinity | binding of FLAG-sKL to coated FGFR1c ([1]; listed as FLAG-sKL): highest affinity; also recorded: bound FGFR1c | FGFR1c binding, protein from HEK293 lysates instead of supernatants ([1]; 200 ng FGFR1c coated): smaller increase | binding of FGF19 to any of the FGFR isoforms [2]: did not mediate binding; also recorded: did not lead to complex formation; also recorded: did not bind any of the FGFR isoforms | binding of coated FGF23 to Fc-FGFR1c [3]: highest FGF23-sKL affinities; also recorded: increased; also recorded: the strongest | binding of coated FGF23 to Fc-FGFR2c [4]: no binding | binding of coated FGF23 to Fc-FGFR3c [5]: lower affinity; also recorded: weaker binding | FGF23-induced calcium mishandling, altered contractility, proarrhythmic calcium release [6]: can be blocked
